How the values were obtained:
[1] = molecular target: the molecule itself; test: crystal structure; SeMet protein, space group P6(3)22, one molecule in the asymmetric unit; hexamer built by crystallographic symmetry; crystals from 0.1 M Tris pH 7.6, 0.2 M NaCl, phosphate, 20°C
[2] = molecular target: the molecule itself; test: SEC; Superdex 200 26/60, 10 mM HEPES pH 7.5, 0.25 M NaCl, 0.5 mM TCEP; data not shown

B1: Alkyl hydroperoxidase D like protein PA0269 from Pseudomonas aeruginosa (natural protein, P. aeruginosa, UniProt Q9I6M1 1-145, looked up)
chain: MTTRLEWAKASPDAYAAMLGLEKALAKAGLERPLIELVYLRTSQINGCAYCVNMHANDARKAGETEQRLQALCVWQETPYFTPRERAALAWTEQLARLSQGALPHGLLDELREHFDDKEIAELTLAVSAINAWNRFGVGMGMQPE
modifications: selenomethionine (four Se-Met residues found in the structure, Se in partial occupancy)
notes: PA0269 (AhpD-like protein), Pseudomonas aeruginosa strain 633 (ATCC 17933D) genomic DNA, full length protein of 145 aa, cloned in pET15b; A native sample with and without the His tag was also made; also called P. aeruginosa AhpD; putative AhpD; source: E. coli BL21 (DE3), M9 selenomethionine media, purified (DE52, Ni-NTA, Superdex 200 gel filtration)
**Q.** With B1 as the protein, how does the “stoichiometry N” value [1] read?
**A.** 6

**Q.** What about the “stoichiometry N” value [2] of the same protein?
**A.** 5.5

Source: article PMC3141380, “Crystal structure of alkyl hydroperoxidase D like protein PA0269 from Pseudomonas aeruginosa: Homology of the AhpD-like structural family” (BMC Structural Biology, 2011)
